Test results taken from doi:10.1101/497123 (2018).

How the values were obtained:
Assay in all cases: BLI
[1] = target: T1, full length H7 HA trimer (influenza A virus, subtype H7 (strain …))
[2] = target: m15
[3] = target: m12
[4] = target: m9
[5] = target: m13
[6] = target: m11
[7] = target: m14
[8] = target: T1, full length H7 HA trimer; remark: listed apart in the source

B1: CT149 Fab (Fab, V domains shown)
VH: QVQLVQSGAEVKKPGASVKVSCKTSGYSFSTYGVSWVRQAPGQGPEWVGWISAYTGITDYAQKFQGRVTLTTDATTATAFLDLRSLRPDDTATYFCARDKVQGRVEVGSGGRHDYWGQGTLVIVSS
VL: EVVLTQSPGTLALPPGERATLSCRASHRVGSTYIAWYQQKSGQAPRRLIYGASNRATDIPDRFSGSGSGTDFTLTIRRLEPEDSAVYYCQQFSVSPWTFGQGTRVEIK
- koff [1]: 0.0031 s⁻¹
- Kd [2]: 9.8 nM
- koff [2]: 0.0034 s⁻¹
- Kd [3]: 8.2 nM
- koff [3]: 0.003 s⁻¹
- Kd [4]: 7 nM
- koff [4]: 0.003 s⁻¹
- Kd [5]: 2.7 nM
- koff [5]: 0.0018 s⁻¹
- Kd [6]: 9 nM
- koff [6]: 0.0033 s⁻¹
- Kd [7]: 7.2 nM
- koff [7]: 0.0029 s⁻¹
- Kd [8]: 3.7 nM
